Experimental data: US20170204167A1 (INSTITUTE FOR RESEARCH IN BIOMEDICINE, published 2017)

Columns and labels:
[1] = target: HA of H7N1 A/ck/IT/13474/99 (influenza A virus H7N1 A/ck/IT/13474/99); experiment: cell-based or functional assay
HA of H5N1 A/HK/213/03 = HA of H5N1 A/HK/213/03 (influenza A virus H5N1 A/HK/213/03); experiment: cell-based or functional assay
HA of H5N1 A/AH/1/05 = HA of H5N1 A/AH/1/05 (influenza A virus H5N1 A/AH/1/05); experiment: cell-based or functional assay
[2] = target: T1, HA of H7N1 A/ck/FPV/Rostock/34 (influenza A virus H7N1 …, UniProt P03459 19-563); experiment: cell-based or functional assay
HA of H5N1 A/INDO/5/05 = HA of H5N1 A/INDO/5/05 (influenza A virus H5N1 A/INDO/5/05); experiment: cell-based or functional assay
HA of H5N1 A/HK/491/97 = HA of H5N1 A/HK/491/97 (influenza A virus H5N1 A/HK/491/97); experiment: cell-based or functional assay
HA of H5N1 A/WS/MONG/05 = HA of H5N1 A/WS/MONG/05 (influenza A virus H5N1 A/WS/MONG/05); experiment: cell-based or functional assay
[3] = target: HA of H12N5 A/duck/Alberta/60/76 on transfected 293 cells (influenza A virus H12N5 …, UniProt P03446 17-564); experiment: staining of HA-transfected 293 cells
[4] = target: HA of H14N5 A/mallard/Astrakhan/263/82 on transfected 293 cells (influenza A virus H14N5 …, UniProt P26136 18-568); experiment: staining of HA-transfected 293 cells
HA of H1N1 A/PR/8/34 = HA of H1N1 A/PR/8/34 (influenza A virus H1N1 A/PR/8/34, UniProt P03452 18-565); experiment: cell-based or functional assay
[5] = target: T1, HA of H7N1 A/ck/FPV/Rostock/34; experiment: cell-based or functional assay; remark: listed apart in the source
HA of H5 A/VN/1194/04 = HA of H5 A/VN/1194/04 (influenza A virus H5 A/VN/1194/04); experiment: cell-based or functional assay
[6] = target: HA of H2N2 A/Singapore/1/57 (influenza A virus H2N2 A/Singapore/1/57, UniProt Q67333 16-525); experiment: ELISA on recombinant or purified HA
[7] = target: HA of H13N6 A/gull/Maryland/704/77 (ELISA antigen) (influenza A virus H13N6 …, UniProt P13103 19-532); experiment: ELISA on recombinant or purified HA
[8] = target: HA of H4N6 A/duck/Czechoslovakia/56 (ELISA antigen) (influenza A virus H4N6 …, UniProt P19696 17-527); experiment: ELISA on recombinant or purified HA

B1: FI6 variant 2 (antibody, V domains shown)
VH: QVQLVQSGGGVVQPGRSLRLSCVASGFTFSTYAMHWVRQAPGRGLEWVAVISYDGNYKYYADSVKGRFSISRDNSNNTLHLEMNTLRTEDTALYYCAKDSQLRSLLYFEWLSQGYFDPWGQGTLVTVTS
VL: DIQMTQSPDSLAVSLGARATINCKSSQSVTFNYKNYLAWYQQKPGQPPKVLIYWASARESGVPDRFSGSGSGTDFTLTISSLQAEDVAVYYCQQHYRTPPTFGQGTKVEIK
With B1 the “Neutralization of HA-pseudotypes (IC90, µg/ml)” value (shortened to “Neutralization of HA-pseudotypes”) [1] was 1.87 µg/mL, the “Neutralization of HA-pseudotypes” value (HA of H5N1 A/HK/213/03) was 0.02 µg/mL and the “Neutralization of HA-pseudotypes” value (HA of H5N1 A/AH/1/05) was 0.05 µg/mL. For the same binder, the “Neutralization of HA-pseudotypes” value [2] was 0.09 µg/mL, the “Neutralization of HA-pseudotypes” value (HA of H5N1 A/INDO/5/05) was 0.31 µg/mL and the “Neutralization of HA-pseudotypes” value (HA of H5N1 A/HK/491/97) was 0.07 µg/mL. For the same binder, the “Neutralization of HA-pseudotypes” value (HA of H5N1 A/WS/MONG/05) was 0.03 µg/mL, the binding result [3] was “binds” and the binding result [4] was “binds”. The “Neutralization of infectious viruses (IC50, µg/ml)” value (HA of H1N1 A/PR/8/34) was 2.2 µg/mL, the “Neutralization H7 A/ck/FPV Rostock/34 IC50 (µg/ml), pseudovirus” value [5] was 0.02 µg/mL and the “Neutralization H5 A/VN/1194/04 IC50 (µg/ml), pseudovirus” value (HA of H5 A/VN/1194/04) was 0.0054 µg/mL. The EC50 [6] was 0.029 µg/mL and the EC50 [7] was 0.088 µg/mL.

B2: FI28 variant 1 (antibody, V domains shown)
VH: EVQLVESGGGAVQPGESLKLSCAASGFTFSNYGMHWVRQAPGKGLEWVAVISYDGSNKYYADSVKGRFTISRDNSKDTLYLQMNSLRAEDTALFYCAKERPLRLLRYFDWLSGGANDYWGQGTLVTVSS
VL: DIVMTQSPDSLAVSLGERATINCKSSQSVLYSSNNKNYLAWYQQKPGQPPKLLIDWASTRESGVPDRFSGSGSGTDFTLTISNLQVEDVAVYYCQQYYRSPSFGQGTKLEIK
For B2, the “Neutralization of HA-pseudotypes” value [1] was greater than 100 µg/mL, the “Neutralization of HA-pseudotypes” value (HA of H5N1 A/HK/213/03) was 0.33 µg/mL and the “Neutralization of HA-pseudotypes” value (HA of H5N1 A/AH/1/05) was 0.05 µg/mL. For the same binder, the “Neutralization of HA-pseudotypes” value [2] was greater than 100 µg/mL, the “Neutralization of HA-pseudotypes” value (HA of H5N1 A/INDO/5/05) was 0.35 µg/mL and the “Neutralization of HA-pseudotypes” value (HA of H5N1 A/HK/491/97) was 0.05 µg/mL. The “Neutralization of HA-pseudotypes” value (HA of H5N1 A/WS/MONG/05) was 0.04 µg/mL and the “Neutralization of infectious viruses (IC50, µg/ml)” value (HA of H1N1 A/PR/8/34) was greater than 100 µg/mL.

B3: FI6 variant 3 (antibody, V domains shown)
VH: QVQLVESGGGVVQPGRSLRLSCAASGFTFSTYAMHWVRQAPGKGLEWVAVISYDANYKYYADSVKGRFTISRDNSKNTLYLQMNSLRAEDTAVYYCAKDSQLRSLLYFEWLSQGYFDYWGQGTLVTVSS
VL: not shown
For B3, the binding result [3] was “binds”, the binding result [4] was “binds” and the “Neutralization H7 A/ck/FPV Rostock/34 IC50 (µg/ml), pseudovirus” value [5] was 0.0274 µg/mL. For the same binder, the “Neutralization H5 A/VN/1194/04 IC50 (µg/ml), pseudovirus” value (HA of H5 A/VN/1194/04) was 0.0035 µg/mL, the EC50 [6] was 0.021 µg/mL and the EC50 [7] was 0.062 µg/mL. For the same binder, the EC50 [8] was 0.185 µg/mL.
